{"source": "paper PMC4350430", "molecular_target": "His6-ΔIBBMOS6 (Arabidopsis thaliana) (UniProt O04294)", "sequence (O04294 whole entry, stated change not applied, the tested form may be a part)": "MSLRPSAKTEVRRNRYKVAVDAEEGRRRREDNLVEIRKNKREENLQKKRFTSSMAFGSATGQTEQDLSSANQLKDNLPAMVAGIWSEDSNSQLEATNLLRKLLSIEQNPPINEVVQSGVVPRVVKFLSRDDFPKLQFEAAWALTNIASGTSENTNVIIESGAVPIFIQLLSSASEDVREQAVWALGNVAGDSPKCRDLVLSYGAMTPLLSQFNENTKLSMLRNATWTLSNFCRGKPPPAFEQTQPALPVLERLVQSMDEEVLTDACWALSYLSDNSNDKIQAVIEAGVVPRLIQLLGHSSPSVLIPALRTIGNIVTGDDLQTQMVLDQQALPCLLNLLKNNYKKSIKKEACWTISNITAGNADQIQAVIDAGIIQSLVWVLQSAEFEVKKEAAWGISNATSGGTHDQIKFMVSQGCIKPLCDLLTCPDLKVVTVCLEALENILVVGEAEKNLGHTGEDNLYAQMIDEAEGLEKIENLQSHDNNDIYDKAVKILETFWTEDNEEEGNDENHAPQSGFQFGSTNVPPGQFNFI", "experiment": "ITC; MicroCal 205, 25°C, 20 mM HEPES, 150 mM NaCl, pH 7.5; His6–ΔIBB–MOS6 in the cell at 43–54 μM, titrated with His6-tagged cargo at 320–940 μM", "data": [{"substance": "His6-HaRxL106 (effector domain, amino acids 46–285) (domain or fragment)", "values": [{"measurement": "Kd", "result": "540 to 850", "unit": "nM"}, {"measurement": "stoichiometry N", "result": 1}]}, {"substance": "HaRxL106ΔC–SV40NLS fusion (recombinant, for ITC)", "values": [{"measurement": "Kd", "result": "2220 to 3700", "unit": "nM"}]}, {"substance": "His6–SAP11 (natural protein)", "values": [{"measurement": "Kd", "result": "4420 to 6800", "unit": "nM"}]}]}
